Test [1] concerns the target HLA-A2/D76N β2m/NY-ESO-1(Y1V9) complex. Kind of test: native MS; nano-ESI-MS, 10 μM protein, 100 mM ammonium acetate, pH 7, declustering potential 50 V, complexes with peptide I.
Test [2] concerns the target HLA-A2/WT β2m/NY-ESO-1(Y1V9) complex. The description is as above.

A word on the stoichiometry N: it is the number of molecules, sites or subunits per partner or assembly. With “HLA-A2/D76N β2m/NY-ESO-1(Y1V9) complex (from UniProt P61769 21-119) (peptide-MHC)”, the stoichiometry N in test [1] was determined as 2. “HLA-A2/WT β2m/NY-ESO-1(Y1V9) complex (from UniProt P61769 21-119) (peptide-MHC)” registered a stoichiometry N in test [2] of 2.

These data come from paper PMC3916536.
